# Experimental data from publication PMC6150735, “Molecular Docking-Based Design and Development of a Highly Selective Probe Substrate for UDP-glucuronosyltransferase 1A10” (Molecular Pharmaceutics, 2018).
# “Also recorded” adds a separate entry of the source.
# B1: UGT1A10 (Homo sapiens) (protein)
# chain: GKLLVVPMDGSHWFTMQSVVEKLILRGHEVVVVMPEVSWQLERSLNCTVKTYSTSYTLEDQNREFMVFAHAQWKAQAQSIFSLLMSSSSGFLDLFFSHCRSLFNDRKLVEYLKESSFDAVFLDPFDTCGLIVAKYFSLPSVVFTRGIFCHHLEEGAQCPAPLSYVPNDLLGFSDAMTFKERVWNHIVHLEDHLFCQYLFRNALEIASEILQTPVTAYDLYSHTSIWLLRTDFVLDYPKPVMPNMIFIGGINCHQGKPLPMEFEAYINASGEHGIVVFSLGSMVSEIPEKKAMAIADALGKIPQTVLWRYTGTRPSNLANNTILVKWLPQNDLLGHPMTRAFITHAGSHGVYESICNGVPMVMMPLFGDQMDNAKRMETKGAGVTLNVLEMTSEDLENALKAVINDKSYKENIMRLSSLHKDRPVEPLDLAVFWVEFVMRHKGAPHLRPAAHDLTWYQYHSLDVIGFLLAVVLTVAFITFKCCAYGYRKCLGKKGRVKKAHKSKTH
# notes: His-tag; made in house; host or cells: baculovirus-infected insect cells
# Tests used:
# [1] = tested on: human intestinal microsomes (HIM); experiment: Glucuronidation by human intestinal microsomes (HIM); type: in vitro ADME; details: 10 μM aglycone
# Procedure: (§1) A commercial HLM pool (cat no:452210, BD Gentest, Bedford, MA) and human intestine microsomes (HIM) pool (lot. no 1110189, XenoTech, Kansas City, KS) were purchased. Pig liver samples were prepared from untreated female pigs that were used for practicing surgical procedures at the University of Kuopio (currently: University of Eastern Finland, Kuopio campus). Other animal liver microsomes were prepared as described previously.[41] The Ethics Committee for Animal Experiments, University of Kuopio, approved these experiments.
# (§2) The incubation mixtures for glucuronidation assays contained 100 mM Tris-HCl buffer pH 7.4, 2.5 mM MgCl2, 0.5 mM UDPGA, recombinant UGT, or microsomes as the enzyme source and 0–15 μM of the test aglycone substrate. When the incubation mixtures contained microsomes, alamethicin was used at a final concentration of 12.5 μg/mL, but it was not included in the recombinant enzyme assays.[43] In the first experiments three negative control samples were tested, namely (i) without the substrate 7-hydroxycoumarin derivative, (ii) without the cofactor UDPGA, or (iii) without the enzyme source. In subsequent experiments, the control samples lacked the enzyme source since it gave the highest fluorescence background. Preliminary experiments were done under different conditions than most of the later assays, namely in 2.5 mL of 100 mM phosphate buffer pH 7.4, containing 500 μg pig liver microsomes, 1.0 μM compound 6 and 0.5 mM UDPGA, at room temperature. Fluorescence spectra (excitation 200–420 nm; emission 400–600 nm) or fluorescence decrease at 390 nm excitation and 460 nm emission, were measured in these preliminary experiments, using a Shimadzu RF-5000 spectrophotofluorometer.
# (§3) Most of the glucuronidation assays were carried out in 96 multiwell plate format, and incubations were carried out in 100 μL and at 37 °C, in the presence of Tris–HCl buffer pH 7.4, UDPGA, and the tested 7-hydroxycoumarin derivative, at the indicated concentrations. Fluorescence decline in the multiwell plate experiments was monitored every other minute, for 40 min, using an excitation filter at 405 nm and detection at 460 nm, in a Victor2 1420 Multilabel counter (PerkinElmer, Life Sciences, Turku, Finland). The fluorescence values were transformed into molarity using the aglycone substrates for making the respective standard curves. Slopes of the substrate concentration decrease per minute were calculated using linear regression analysis, in which the linear part of the kinetic assay indicated the glucuronidation rate. Enzyme catalyzed glucuronidation rate was calculated by subtracting the blank value from the full reaction value. The intra-assay variability of the kinetic assays was 6% when compound 6 was used as the aglycone substrate. Kinetic analyses were also performed in the same 96 multiwell plates format, with excitation filter at 405 nm and detection at 460 nm, using 6–8 different substrate concentrations per substrate and two different protein concentrations for both the wild-type and mutant UGT1A10. The higher concentrations, 13.5 mg/L for UGT1A10 and 12.0 mg/L for the UGT1A10 mutant, were used when the substrates were HFC, compounds 4 and 6, whereas the lower protein concentrations, 6.75 and 6.0 mg/L for UGT1A10 and the mutant, respectively, were used when the substrates were compounds 1, 2, 3, and 5.
# [2] = tested on: human UGTs; experiment: Recombinant human UGT screen: glucuronidation rates across human UGTs; type: biochemical; details: 10 μM aglycone; for Selectivity among human UGTs: other UGTs at very low rates
# Procedure: (§4) Recombinant human UGTs 1A1, 1A3, 1A6, 1A7, 1A8, 1A9, 1A10, 2A1, 2A2, 2A3, 2B4, 2B10, 2B7, and 2B17 were produced, as His-tagged proteins, in baculovirus-infected insect cells as previously described.[37]−[39] The relative expression level of each of these recombinant UGTs was evaluated by immunodetection, using monoclonal antibody against the His-tag, as described elsewhere.[40] A numeric value of 1.0 was given to the expression level of UGT1A8 and the relative expression level of each of the other UGTs was related to this value. Normalized activities were obtained by dividing the glucuronidation rate values by the relative expression level of the tested UGT. In addition, UGTs 1A4, 2B10, and 2B15 were purchased from Corning Life Sciences (New York) and are marked, in Figure 5, with a “C” to indicate that they are commercial enzymes. The expression levels of the UGTs in the commercial samples could not be determined, so their protein concentration was used to calculate the reaction rate.
# as §2, §3
# [3] = tested on: human liver microsomes (HLM); experiment: Glucuronidation by human liver microsomes (HLM); type: in vitro ADME; details: 10 μM aglycone
# Procedure: as §1, §2, §3
# [4] = Excitation and emission fluorescence spectra of coumarin derivatives; type: physicochemical; design: dose or concentration left out as unconfirmed
# Procedure: The absorbance spectra of 10 μM coumarin derivatives at 100 mM Tris–HCl pH 7.4 containing 10% dimethyl sulfoxide were measured using a Hitachi U-2000 Spectrophotometer (Tokyo, Japan). […] The excitation spectra was from 200 to 420 at 460 nm emission and the emission spectra was from 400 to 600 at 390 nm excitation (data in Supplementary Table S1 and Figures S1 and S2). The effect of pH on fluorescence intensity was determined at 405 nm excitation and 460 nm emission, in the presence of 1.5% trichloroacetic acid, 100 mM phosphate buffers at pH 5, 6, 7, 8, and 9, or 1.6 M glycine–NaOH pH 10.4.
# [5] = Absorbance spectra of coumarin derivatives; type: physicochemical; details: 10 μM, 100 mM Tris–HCl pH 7.4, 10% dimethyl sulfoxide
# Procedure: The absorbance spectra of 10 μM coumarin derivatives at 100 mM Tris–HCl pH 7.4 containing 10% dimethyl sulfoxide were measured using a Hitachi U-2000 Spectrophotometer (Tokyo, Japan). Excitation and emission fluorescence spectra of 0.1 μM coumarin derivatives in 100 mM Tris-HCl pH 7.4 were measured using a Shimadzu RF-5000 spectrophotofluorometer (Tokyo, Japan). The excitation spectra was from 200 to 420 at 460 nm emission and the emission spectra was from 400 to 600 at 390 nm excitation (data in Supplementary Table S1 and Figures S1 and S2). The effect of pH on fluorescence intensity was determined at 405 nm excitation and 460 nm emission, in the presence of 1.5% trichloroacetic acid, 100 mM phosphate buffers at pH 5, 6, 7, 8, and 9, or 1.6 M glycine–NaOH pH 10.4.
# [6] = substrate: O=c1cc(C(F)(F)F)c2ccc(O)cc2o1; experiment: Glucuronidation kinetics by recombinant wild-type UGT1A10 (fluorescence decrease, 96-well plate); type: biochemical, human; details: other: UGT1A10 wild-type, 7-hydroxyl glucuronidation, Michaelis–Menten, one experiment; pH 7.4; 37.0 °C
# Procedure: as §4, §2, §3
# [7] = substrate: O=c1oc2cc(O)ccc2cc1-n1cncn1; experiment: as above; type: biochemical, human; details: other: UGT1A10 wild-type, 7-hydroxyl glucuronidation, Michaelis–Menten, one experiment; pH 7.4; 37.0 °C
# Procedure: as §4, §2, §3
# [8] = substrate: CN(C)c1ccc(-c2cc3ccc(O)cc3oc2=O)cc1; experiment: as above; type: biochemical, human; details: other: UGT1A10 wild-type, 7-hydroxyl glucuronidation, Michaelis–Menten, one experiment; pH 7.4; 37.0 °C
# Procedure: as §4, §2, §3
# [9] = substrate: COc1ccc(-c2cc3ccc(O)cc3oc2=O)cc1; experiment: as above; type: biochemical, human; details: other: UGT1A10 wild-type, 7-hydroxyl glucuronidation, Michaelis–Menten, one experiment; pH 7.4; 37.0 °C
# Procedure: as §4, §2, §3
# [10] = substrate: O=c1oc2cc(O)ccc2cc1-c1ccc(O)cc1; experiment: as above; type: biochemical, human; details: other: UGT1A10 wild-type, 7-hydroxyl glucuronidation, Michaelis–Menten, one experiment; pH 7.4; 37.0 °C
# Procedure: as §4, §2, §3
# [11] = substrate: O=c1oc2cc(O)ccc2cc1-c1ccc(F)cc1; experiment: as above; type: biochemical, human; details: other: UGT1A10 wild-type, 7-hydroxyl glucuronidation, Michaelis–Menten, one experiment; pH 7.4; 37.0 °C
# Procedure: as §4, §2, §3
# [12] = substrate: Cc1ccc(-c2cc3ccc(O)cc3oc2=O)cc1; experiment: as above; type: biochemical, human; details: other: UGT1A10 wild-type, 7-hydroxyl glucuronidation, Michaelis–Menten, one experiment; pH 7.4; 37.0 °C
# Procedure: as §4, §2, §3
molecule,measurement,setting,value
"O=c1ccc2ccc(O)cc2o1 [7-hydroxycoumarin, reference compound]","Glucuronidation rate, HLM compared with HIM (in words)",[1],much higher rates by HLM than by HIM
same,UGT(s) that primarily glucuronidate the substrate,[2]; control substrates,UGT1A6
"CN(C)c1ccc(-c2cc3ccc(O)cc3oc2=O)cc1 [Compound 4, 7-Hydroxy-3-(4-(dimethylamino)phenyl)-2H-chromen-2-one]",Glucuronidation by HLM (in words),[3],"not glucuronidated by HLM at all, or only at very low rates; also recorded: very low or below the detection limit"
same,Fluorescence EMmax,[4],457 nm
same,Amax,[5],370 nm
same,ε abs,[5],22900 M⁻¹ cm⁻¹
same,Selectivity among human UGTs,[2],selective for UGT1A10
"Cc1ccc(-c2cc3ccc(O)cc3oc2=O)cc1 [Compound 5, 7-Hydroxy-3-(p-tolyl)-2H-chromen-2-one]",Fluorescence EMmax,[4],462 nm
same,Fluorescence EXmax,[4],358 nm
same,Amax,[5],347 nm
same,ε abs,[5],19500 M⁻¹ cm⁻¹
same,Selectivity among human UGTs,[2],selective for UGT1A10
B1,Km,[6],14 (10.7–17.3) μM
same,Vmax,[6],0.0151 µmol/min/mg
same,Vmax/Km,[6],1100 µL/min/mg
same,Km,[7],7.0 (3.1–11) μM
same,Vmax,[7],0.0053 µmol/min/mg
same,Vmax/Km,[7],760 µL/min/mg
same,Km,[8],2.8 (0–6.5) μM
same,Vmax,[8],0.0153 µmol/min/mg
same,Vmax/Km,[8],5500 µL/min/mg
same,Km,[9],8.3 (0–31.4) μM
same,Vmax,[9],0.0223 µmol/min/mg
same,Vmax/Km,[9],2700 µL/min/mg
same,Km,[10],2.2 (1–3.4) μM
same,Vmax,[10],0.0059 µmol/min/mg
same,Vmax/Km,[10],2700 µL/min/mg
same,Km,[11],10.7 (1.7–19.6) μM
same,Vmax,[11],0.031 µmol/min/mg
same,Vmax/Km,[11],2900 µL/min/mg
same,Km,[12],2.8 (0.7–4.9) μM
same,Vmax,[12],0.0162 µmol/min/mg
same,Vmax/Km,[12],5800 µL/min/mg
